# B1: native human α2-macroglobulin (natural protein, UniProt P01023 24-1474, looked up)
# chain: SVSGKPQYMVLVPSLLHTETTEKGCVLLSYLNETVTVSASLESVRGNRSLFTDLEAENDVLHCVAFAVPKSSSNEEVMFLTVQVKGPTQEFKKRTTVMVKNEDSLVFVQTDKSIYKPGQTVKFRVVSMDENFHPLNELIPLVYIQDPKGNRIAQWQSFQLEGGLKQFSFPLSSEPFQGSYKVVVQKKSGGRTEHPFTVEEFVLPKFEVQVTVPKIITILEEEMNVSVCGLYTYGKPVPGHVTVSICRKYSDASDCHGEDSQAFCEKFSGQLNSHGCFYQQVKTKVFQLKRKEYEMKLHTEAQIQEEGTVVELTGRQSSEITRTITKLSFVKVDSHFRQGIPFFGQVRLVDGKGVPIPNKVIFIRGNEANYYSNATTDEHGLVQFSINTTNVMGTSLTVRVNYKDRSPCYGYQWVSEEHEEAHHTAYLVFSPSKSFVHLEPMSHELPCGHTQTVQAHYILNGGTLLGLKKLSFYYLIMAKGGIVRTGTHGLLVKQEDMKGHFSISIPVKSDIAPVARLLIYAVLPTGDVIGDSAKYDVENCLANKVDLSFSPSQSLPASHAHLRVTAAPQSVCALRAVDQSVLLMKPDAELSASSVYNLLPEKDLTGFPGPLNDQDNEDCINRHNVYINGITYTPVSSTNEKDMYSFLEDMGLKAFTNSKIRKPKMCPQLQQYEMHGPEGLRVGFYESDVMGRGHARLVHVEEPHTETVRKYFPETWIWDLVVVNSAGVAEVGVTVPDTITEWKAGAFCLSEDAGLGISSTASLRAFQPFFVELTMPYSVIRGEAFTLKATVLNYLPKCIRVSVQLEASPAFLAVPVEKEQAPHCICANGRQTVSWAVTPKSLGNVNFTVSAEALESQELCGTEVPSVPEHGRKDTVIKPLLVEPEGLEKETTFNSLLCPSGGEVSEELSLKLPPNVVEESARASVSVLGDILGSAMQNTQNLLQMPYGCGEQNMVLFAPNIYVLDYLNETQQLTPEIKSKAIGYLNTGYQRQLNYKHYDGSYSTFGERYGRNQGNTWLTAFVLKTFAQARAYIFIDEAHITQALIWLSQRQKDNGCFRSSGSLLNNAIKGGVEDEVTLSAYITIALLEIPLTVTHPVVRNALFCLESAWKTAQEGDHGSHVYTKALLAYAFALAGNQDKRKEVLKSLNEEAVKKDNSVHWERPQKPKAPVGHFYEPQAPSAEVEMTSYVLLAYLTAQPAPTSEDLTSATNIVKWITKQQNAQGGFSSTQDTVVALHALSKYGAATFTRTGKAAQVTIQSSGTFSSKFQVDNNNRLLLQQVSLPELPGEYSMKVTGEGCVYLQTSLKYNILPEKEEFPFALGVQTLPQTCDEPKAHTSFQISLSVSYTGSRSASNMAIVDVKMVSGFIPLKPTVKMLERSNHVSRTEVSSNHVLIYLDKVSNQTLSLFFTVLQDVPVRDLKPAIVKVYDYYETDEFAIAEYNAPCSKDLGNA
# modifications: β-cysteinyl-γ-glutamyl thioester bond C972–Q975; glycosylated
# notes: human α2-macroglobulin, secreted glycosylated 1451-residue protein; homotetramer, a dimer of disulfide-linked dimers; Authentic protein from the plasma of anonymous healthy donors; also called hα2M; native hα2M
# Target: the molecule itself
# Assay: SEC-MALS; Superose 6 10/300 Increase column, buffer C (20 mM Tris–HCl, 150 mM sodium chloride, pH 7.4), 25 °C; native and MA-treated hα2M from FR and NF plasma
protein,measurement,value
B1,stoichiometry N,4
